Experimental findings from paper PMC10047360 are described below.

The nature of the data set: Western blot, mature upper band, B3GnT2-/- HEK293T. The conditions noted are these: glycan lost; control: wild-type LRP6. (In western blotting, separated proteins are transferred to a membrane and probed.)

B1: LRP6: N281Q (protein)
parent chain: MGAVLRSLLACSFCVLLRAAPLLLYANRRDLRLVDATNGKENATIVVGGLEDAAAVDFVFSHGLIYWSDVSEEAIKRTEFNKTESVQNVVVSGLLSPDGLACDWLGEKLYWTDSETNRIEVSNLDGSLRKVLFWQELDQPRAIALDPSSGFMYWTDWGEVPKIERAGMDGSSRFIIINSEIYWPNGLTLDYEEQKLYWADAKLNFIHKSNLDGTNRQAVVKGSLPHPFALTLFEDILYWTDWSTHSILACNKYTGEGLREIHSDIFSPMDIHAFSQQRQPNATNPCGIDNGGCSHLCLMSPVKPFYQCACPTGVKLLENGKTCKDGATELLLLARRTDLRRISLDTPDFTDIVLQLEDIRHAIAIDYDPVEGYIYWTDDEVRAIRRSFIDGSGSQFVVTAQIAHPDGIAVDWVARNLYWTDTGTDRIEVTRLNGTMRKILISEDLEEPRAIVLDPMVGYMYWTDWGEIPKIERAALDGSDRVVLVNTSLGWPNGLALDYDEGKIYWGDAKTDKIEVMNTDGTGRRVLVEDKIPHIFGFTLLGDYVYWTDWQRRSIERVHKRSAEREVIIDQLPDLMGLKATNVHRVIGSNPCAEENGGCSHLCLYRPQGLRCACPIGFELISDMKTCIVPEAFLLFSRRADIRRISLETNNNNVAIPLTGVKEASALDFDVTDNRIYWTDISLKTISRAFMNGSALEHVVEFGLDYPEGMAVDWLGKNLYWADTGTNRIEVSKLDGQHRQVLVWKDLDSPRALALDPAEGFMYWTEWGGKPKIDRAAMDGSERTTLVPNVGRANGLTIDYAKRRLYWTDLDTNLIESSNMLGLNREVIADDLPHPFGLTQYQDYIYWTDWSRRSIERANKTSGQNRTIIQGHLDYVMDILVFHSSRQSGWNECASSNGHCSHLCLAVPVGGFVCGCPAHYSLNADNRTCSAPTTFLLFSQKSAINRMVIDEQQSPDIILPIHSLRNVRAIDYDPLDKQLYWIDSRQNMIRKAQEDGSQGFTVVVSSVPSQNLEIQPYDLSIDIYSRYIYWTCEATNVINVTRLDGRSVGVVLKGEQDRPRAVVVNPEKGYMYFTNLQERSPKIERAALDGTEREVLFFSGLSKPIALALDSRLGKLFWADSDLRRIESSDLSGANRIVLEDSNILQPVGLTVFENWLYWIDKQQQMIEKIDMTGREGRTKVQARIAQLSDIHAVKELNLQEYRQHPCAQDNGGCSHICLVKGDGTTRCSCPMHLVLLQDELSCGEPPTCSPQQFTCFTGEIDCIPVAWRCDGFTECEDHSDELNCPVCSESQFQCASGQCIDGALRCNGDANCQDKSDEKNCEVLCLIDQFRCANGQCIGKHKKCDHNVDCSDKSDELDCYPTEEPAPQATNTVGSVIGVIVTIFVSGTVYFICQRMLCPRMKGDGETMTNDYVVHGPASVPLGYVPHPSSLSGSLPGMSRGKSMISSLSIMGGSSGPPYDRAHVTGASSSSSSSTKGTYFPAILNPPPSPATERSHYTMEFGYSSNSPSTHRSYSYRPYSYRHFAPPTTPCSTDVCDSDYAPSRRMTSVATAKGYTSDLNYDSEPVPPPPTPRSQYLSAEENYESCPPSPYTERSYSHHLYPPPPSPCTDSS
B1: the localisation_or_trafficking entry is given as “no change”.
